One may read the Kd as the constant that tells how readily two partners part at equilibrium.

Substitutions are numbered along the chain they refer to.

1 substance from paper PMC8303780, “Mutational Analysis of Redβ Single Strand Annealing Protein: Roles of the 14 Lysine Residues in DNA Binding and Recombination In Vivo” can be followed below.

Holding throughout (assay): fluorescence anisotropy
Conditions in all cases: Anisotropy: 50 mM Tris-HCl pH 7.5, 1 mM DTT, 0.1 mg/mL BSA, 10 nM FAM48, 23 °C (Kd per monomer), gel assay: 10 µM Redβ, 50 µM nt of each oligo, PBS, 37 °C
(Polarisation of emitted light reports the rotation of a fluorescent probe.)

The target of data set [1] is T1, Redβ K148A K148A (bacteriophage λ) (UniProt P03698).
T1 sequence: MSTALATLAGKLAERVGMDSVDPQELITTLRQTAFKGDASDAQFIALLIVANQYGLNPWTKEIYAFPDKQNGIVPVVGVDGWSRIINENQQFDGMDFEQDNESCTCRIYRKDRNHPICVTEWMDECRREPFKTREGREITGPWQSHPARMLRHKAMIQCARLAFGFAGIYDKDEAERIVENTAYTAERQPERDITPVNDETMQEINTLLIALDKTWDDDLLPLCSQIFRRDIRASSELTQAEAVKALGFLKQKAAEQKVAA

Data set [2] concerns the target T2, Redβ K258A K258A (bacteriophage λ) (UniProt P03698).
T2 sequence: T1 sequence with A148K, K258A

The target of data set [3] is T3, Redβ K214A K214A (bacteriophage λ) (UniProt P03698).
T3 sequence: T1 sequence with A148K, K214A

Data set [4] addresses T4, Redβ K11A K11A (bacteriophage λ) (UniProt P03698).
T4 sequence: T1 sequence with K11A, A148K

The target of data set [5] is T5, Redβ K251A K251A (bacteriophage λ) (UniProt P03698).
T5 sequence: T1 sequence with A148K, K251A

For data set [6], the target named is T6, Redβ K61A K61A (bacteriophage λ) (UniProt P03698).
T6 sequence: T1 sequence with K61A, A148K

Data set [7] has as its target T7, Redβ K132A K132A (bacteriophage λ) (UniProt P03698).
T7 sequence: T1 sequence with K132A, A148K

The target of data set [8] is T8, Redβ K154A K154A (bacteriophage λ) (UniProt P03698).
T8 sequence: T1 sequence with A148K, K154A

In data set [9] the target is T9, Redβ K253A K253A (bacteriophage λ) (UniProt P03698).
T9 sequence: T1 sequence with A148K, K253A

As for FAM48 48-mer ssDNA, the Kd in [1] was 14100 nM; in [2] it was 110 nM; in data set [3], 310 nM; in [4] it was 230 nM; in data set [5], 190 nM; in [6] it was 390 nM. Besides, the Kd in data set [7] turned out to be 1770 nM; in data set [8], 2100 nM; in data set [9] it was 210 nM.
